Data reported in patent publication US20260049134A1 (UNIVERSITY OF FLORIDA RESEARCH FOUNDATION, published 2026).
Positions count from the first letter of the chain named. Names may count otherwise.

B1: TH9-0022 (antibody, human IgG1, kappa, L234A L235A, V domains shown)
VH: QSLEESGGRLVTPGTPLTLTCTVSGFSLSSYAMNWVRQAPGKGLEWIGIINSYGSTYYASWAKGRFTISKTSTTVDLKITSPTTEDTATYFCARVTYDSYGYGYAPYGMDLWGPGTLVTVSS
VL: LVMTQTPSSTSNAVGGTVTIKCQASQSIGNVLAWYQQKPGQPPKLLIYAASTLASGVPSRVGGSRSGTEYTLTISGVQREDAATYYCLGSDSDSDIAFGGGTELEILR
notes: also called TH9-022; negative control IgG1
B2: HW-1 chimeric rabbit-human IgG1 LA/LA/PG (antibody, V domains shown)
VH: QSLEESGGGLFKPTDTLTLTCTASGFSLGSSYAISWVRQAPGKELEWIGTIDSGRAYYARWAKSRSTITRNTNENTVTLKMTSLTAADTATYFCARDLIPTYSQDIWGPGTLVTISS
VL: SFVLTQPASVQVNLGQTVSLTCTADTLSRRYASWYQQKPGQAPVLLIYRDTSRPSGVPDRFSGSSSGNTATLTISGAQAGDEADYYCATSDGSGNSYQYVFGGGTQLTVTS
notes: Fc-silenced (L234A/L235A/P329G) IgG1, lambda; Alexa Fluor 647-labeled in single-step flow cytometry; Prototype of cluster C-1
B3: HW-101 chimeric rabbit-human IgG1 LA/LA/PG (antibody, V domains shown)
VH: QEQLVESGGRLVTPGTPLTLTCKASGFSLGKYDMSWVRQAPGKGLEWIGTIYAGSGSTWYASWAKGRFTISKTSTTVDLKMTSLTTEDTATYFCARDFLGVNSIWGPGTLVTISS
VL: B2 VL with R30S, G40D, Y48H, S65N, N95S, S96N, Y97F, Q98H, Y99F, S111G
notes: Fc-silenced (L234A/L235A/P329G) IgG1, lambda; Alexa Fluor 647-labeled in single-step flow cytometry; Cluster C-97
B4: HW-45 chimeric rabbit-human IgG1 LA/LA/PG (antibody, V domains shown)
VH: QKQLVESGGRLVTPGTPLTLTCTVSGFSLSSYAMGWFRQAPGKGLEWIGIINSYGSTYYASWAKGRFTISKTSTTVDLKITSPTTEDTATYFCGRRIGSARFDPWGPGTLVTVSS
VL: B2 VL with R30S, S52R, N95S, Q98R, Y99L, S111G
notes: Fc-silenced (L234A/L235A/P329G) IgG1, lambda; Alexa Fluor 647-labeled in single-step flow cytometry; Prototype of cluster C-45
B5: HW-113 chimeric rabbit-human IgG1 LA/LA/PG (antibody, V domains shown)
VH: QKQLVESGGGLVQPGGSLTLTCTVSGFSLNKYYMGWFRQAPGKGLEWIGVISRSGDTYYSSWAKGRFTISKASTTVDLRITSPTTEDTATYFCARDASSPGFHGDRLDLWGQGTLVTVSS
VL: B2 VL with R30S, S93I, N95S, S96N, Q98L, Y99W, S111G
notes: Fc-silenced (L234A/L235A/P329G) IgG1, lambda; Alexa Fluor 647-labeled in single-step flow cytometry
B6: HW-97 chimeric rabbit-human IgG1 LA/LA/PG (antibody, V domains shown)
VH: QKQLVESGGRLVTPGTPLTLTCTVTGIDLSSHGMSWVRQAPGKGLEWIGVIYPSGSTWYASWARGRFTISKTSTTVDLKMTSLTTEDTATHFCARGDVGGADNNIWGPGTLVTVSS
VL: B2 VL with N13D, D25E, R30S, N95S, S111G
notes: Fc-silenced (L234A/L235A/P329G) IgG1, lambda; Alexa Fluor 647-labeled in single-step flow cytometry; Prototype of cluster C-97

biological target: T1, ICAM1, endogenous in H929 multiple myeloma cells (human, UniProt P05362 28-532); assay: IP from H929 cell lysate, LC-MS/MS, heatmap
T1 construct: Native protein on H929 cells (flow cytometry, siRNA knockdown) and in H929 lysates (IP/MS); also called CD54
Experimental: (§1) Immunoprecipitation. […] After 30 min of rocking at 4° C., and lysates were centrifuged at 18,400×g for 20 min at 4° C. Subsequently, 1-mL aliquots of the supernatants were pre-cleared twice with Protein G agarose (Thermo Fisher Scientific) by adding 50 μL of 50% resin slurry and incubating 30 min with end-over-end tumbling at 4° C., followed by centrifugation at 16,000×g for 5 min and pooling of the pre-cleared cell lysate aliquots. Representative mAbs from each cluster were immobilized on Protein G agarose at a ratio of 25 μg IgG1 per 30 μL of 50% slurry, diluted to 500 μL with Dulbecco's PBS (DPBS) and incubated for 1 h at 4° C. with tumbling, followed by centrifugation at 5,000×g for 30 s and 2 washes with lysis buffer. After the last wash, the ˜15 μL of IgG1-coated resin was blocked with 10 μL of 10% BSA (MilliporeSigma). Next, 1 mL of the pooled pre-cleared cell lysate was added to the IgG1-coated resin and incubated for 3 h at 4° C. with tumbling. The immune complexes were pelleted by centrifugation at 2,500×g at 4° C. for 30 s, and gently resuspended to wash for 3 min in 1 mL of lysis buffer, which was repeated once with lysis buffer and twice with an identical wash buffer lacking Triton X-100. Finally, the immune complexes were eluted from the resin with three batch-wise steps using 30 μL of elution buffer (6 or 8 M urea (MilliporeSigma), 20 mM Tris-HCl pH 7.5, and 100 mM NaCl) and incubating 15 min at RT with 450 rpm orbital agitation. Finally, 16 μL of the eluate (˜20%) was analyzed on a reducing SDS-PAGE gel stained with SYPRO Ruby dye (Bio-Rad Laboratories), while the rest was stored at −80° C. prior to LC-MS/MS analysis.
(§2) Protein elutions in 6 or 8 M urea were reduced with 15 mM dithiothreitol at 56° C. for 30 min followed by alkylation with 30 mM iodoacetamide in the dark at RT. The elutions were then diluted to 1 M urea with 50 mM ammonium bicarbonate pH 7.8 and digested overnight at 37° C. following the addition of 4 μg trypsin (Promega).

T1 sequence (P05362 28-532 limits assumed): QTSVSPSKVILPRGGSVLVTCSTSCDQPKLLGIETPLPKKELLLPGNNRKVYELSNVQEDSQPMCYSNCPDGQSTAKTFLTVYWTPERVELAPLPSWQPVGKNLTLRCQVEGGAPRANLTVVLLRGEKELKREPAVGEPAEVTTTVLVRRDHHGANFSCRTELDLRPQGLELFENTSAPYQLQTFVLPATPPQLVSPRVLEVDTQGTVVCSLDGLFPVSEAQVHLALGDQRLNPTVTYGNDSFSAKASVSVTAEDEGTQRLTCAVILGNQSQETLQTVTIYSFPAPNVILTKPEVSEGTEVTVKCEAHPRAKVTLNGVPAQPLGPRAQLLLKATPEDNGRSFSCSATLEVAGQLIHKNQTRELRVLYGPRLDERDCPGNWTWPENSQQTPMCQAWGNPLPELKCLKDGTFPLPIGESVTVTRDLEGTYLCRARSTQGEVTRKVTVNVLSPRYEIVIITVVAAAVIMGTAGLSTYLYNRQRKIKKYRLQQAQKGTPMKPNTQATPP

Binder	binding result
B1	no binding
B2	no binding
B3	no binding
B4	no binding

biological target: T2, PTPRG, endogenous in H929 multiple myeloma cells (human, UniProt P23470 20-1445); assay: IP from H929 cell lysate, LC-MS/MS, heatmap
T2 construct: Native protein on H929 cells (flow cytometry, siRNA knockdown) and in H929 lysates (IP/MS); also called phosphatase receptor type γ
Experimental: as §1, §2

T2 sequence (P23470 20-1445 limits assumed): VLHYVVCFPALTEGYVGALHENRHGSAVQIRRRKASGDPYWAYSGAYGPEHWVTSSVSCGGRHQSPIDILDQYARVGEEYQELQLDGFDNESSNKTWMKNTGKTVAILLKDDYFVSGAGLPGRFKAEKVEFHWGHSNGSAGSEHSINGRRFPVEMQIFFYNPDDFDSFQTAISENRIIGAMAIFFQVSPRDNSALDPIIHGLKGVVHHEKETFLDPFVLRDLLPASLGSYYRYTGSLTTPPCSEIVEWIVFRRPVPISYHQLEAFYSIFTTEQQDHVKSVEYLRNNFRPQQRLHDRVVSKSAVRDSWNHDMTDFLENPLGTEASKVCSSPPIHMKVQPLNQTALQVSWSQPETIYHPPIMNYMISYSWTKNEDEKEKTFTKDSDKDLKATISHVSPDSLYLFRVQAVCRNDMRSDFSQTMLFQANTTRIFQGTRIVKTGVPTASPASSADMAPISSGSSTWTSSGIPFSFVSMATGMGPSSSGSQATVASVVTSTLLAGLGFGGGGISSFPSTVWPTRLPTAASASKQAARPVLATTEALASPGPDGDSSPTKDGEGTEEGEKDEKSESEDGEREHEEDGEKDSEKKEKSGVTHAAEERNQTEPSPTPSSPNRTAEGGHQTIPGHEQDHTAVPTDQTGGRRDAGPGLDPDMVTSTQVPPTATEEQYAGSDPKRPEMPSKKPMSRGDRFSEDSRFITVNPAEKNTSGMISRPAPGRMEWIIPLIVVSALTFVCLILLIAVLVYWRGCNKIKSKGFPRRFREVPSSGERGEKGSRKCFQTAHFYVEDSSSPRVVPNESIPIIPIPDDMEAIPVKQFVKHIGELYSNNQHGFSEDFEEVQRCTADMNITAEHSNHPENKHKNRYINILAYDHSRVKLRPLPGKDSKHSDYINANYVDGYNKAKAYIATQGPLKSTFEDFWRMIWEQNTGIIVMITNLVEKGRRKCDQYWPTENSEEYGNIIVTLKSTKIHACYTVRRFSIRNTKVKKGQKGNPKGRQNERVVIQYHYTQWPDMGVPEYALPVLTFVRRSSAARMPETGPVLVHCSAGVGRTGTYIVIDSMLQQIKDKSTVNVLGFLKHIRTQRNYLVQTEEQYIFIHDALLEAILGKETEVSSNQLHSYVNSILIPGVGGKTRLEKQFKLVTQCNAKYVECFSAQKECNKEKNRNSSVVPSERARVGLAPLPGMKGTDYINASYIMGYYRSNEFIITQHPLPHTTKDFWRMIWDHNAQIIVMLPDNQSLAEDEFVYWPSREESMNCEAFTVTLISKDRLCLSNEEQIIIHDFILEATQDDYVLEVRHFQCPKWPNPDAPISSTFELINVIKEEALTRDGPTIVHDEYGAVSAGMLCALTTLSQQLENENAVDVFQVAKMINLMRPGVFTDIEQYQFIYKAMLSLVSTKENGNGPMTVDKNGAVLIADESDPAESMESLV

Binder	binding result
B3	no binding
B5	no binding
B4	no binding

biological target: T3, CADM1, endogenous in H929 multiple myeloma cells (human, UniProt Q9BY67 45-442); assay: IP from H929 cell lysate, LC-MS/MS, heatmap
T3 construct: Native protein on H929 cells (flow cytometry, siRNA knockdown) and in H929 lysates (IP/MS); also called IGSF4A
T3 sequence: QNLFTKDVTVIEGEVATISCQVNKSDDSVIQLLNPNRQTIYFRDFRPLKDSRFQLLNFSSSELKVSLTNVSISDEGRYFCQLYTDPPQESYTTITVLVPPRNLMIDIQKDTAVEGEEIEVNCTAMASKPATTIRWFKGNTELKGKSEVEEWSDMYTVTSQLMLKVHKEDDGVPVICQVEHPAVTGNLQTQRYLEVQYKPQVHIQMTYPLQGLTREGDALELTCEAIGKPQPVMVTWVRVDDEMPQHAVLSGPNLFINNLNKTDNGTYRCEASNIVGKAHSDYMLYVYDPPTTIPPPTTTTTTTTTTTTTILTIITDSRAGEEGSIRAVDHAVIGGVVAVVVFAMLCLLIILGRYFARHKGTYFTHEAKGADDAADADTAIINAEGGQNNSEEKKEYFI
Experimental: as §1, §2

Binder	binding result
B1	no binding
B2	no binding
B5	no binding
B4	no binding

biological target: T4, CADM1 on RPMI-8226 cells (human, UniProt Q9BY67); assay: flow cytometry, IgG1 on RPMI-8226 cells
T4 sequence (single chain, looked up): T3 sequence
Experimental: Staining protocol. Cells were harvested (5×10⁴ cells per sample), washed once with phosphate-buffered saline (PBS) at RT, and a second time with ice-cold FACS buffer (PBS, 0.5% BSA, 2 mM EDTA, 0.1% NaN₃). Cells were stained in 50 μL of primary antibody for 30 min on ice, washed twice with 100 μL FACS buffer, stained with 50 μL of diluted secondary antibody, washed two more times in FACS, and then resuspended in 50 μL FACS buffer. Samples were acquired on an Accuri C6 Plus or a BD FACSCanto II flow cytometer (both from BD Biosciences). Data were analyzed using FlowJo version 10 software. Primary antibodies: Fab (10 μg/mL), IgG1 (0.1 to 50 μg/mL), or 25 μL polyclonal Fabs from periplasmic extracts. Polyclonal Fabs were produced by diluting bacterial stocks by a factor of 100 in autoinduction media and incubating overnight to induce expression as previously described. […] Viability stains: DAPI (Cell Signaling Technology) or SYTOX AADvanced Dead Cell Stain (Thermo Fisher Scientific). Labeling: The panel of chimeric rabbit/human IgG1s was labeled using the Alexa Fluor 647 Labeling Kit (Thermo Fisher Scientific, #A20173) to facilitate single-step staining. Competition: Unlabeled IgG1s were added at saturating concentrations of 60 μg/mL to block the target receptors, incubating on ice for 30 min, followed by the addition of an equal volume of the Alexa Fluor 647 labeled antibody at 2 μg/mL, and the mixture was incubated on ice for another 30 min.

Binder	antibody-bound positive cells (%)	binding result
B1	3	no binding
B3	97.6	
B6	98.8	
